Test system: PP2A-B55α
Assay: Single alanine mutational scan, YFP-tagged interactors immunoprecipitated from HeLa cells, Western blot
Assay type: binding, human
Experimental: Standard cloning techniques were used throughout. Point mutations were introduced by whole plasmid polymerase chain reaction (PCR). All constructs were fully sequenced. Synthetic DNA was purchased from GeneArt, Life Technologies and cloned into pcDNA5/FRT/TO (Invitrogen) expression vector containing YFP, resulting in the indicated YFP fusion proteins. These constructs were transiently transfected into HeLa cells 24 hours before harvesting cells. Cells were lysed in lysis buffer [50 mM tris-HCl (pH 7.5), 50 mM NaCl, 1 mM EDTA, 1 mM […], and 0.1% NP-40]. Complexes were immunoprecipitated at 4°C in lysis buffer with green fluorescent protein (GFP)–Trap (ChromoTek) and washed in lysis buffer. Precipitated protein complexes were washed three times in lysis buffer, eluted in 2× SDS sample buffer, and subjected to Western blotting or MS as indicated.

[1] = single alanine mutant of YFP-tagged RBM7
[2] = single alanine mutant of YFP-tagged CDCA4

| Molecule | Experimental % binding [1] [%] | Experimental % binding [2] [%] |
| --- | --- | --- |
| RBM7 Q153: RBM7, Q153 to alanine (protein, UniProt Q9Y580 2-266, looked up, variant Q153A) RNA-binding protein 7: GAAAAEADRTLFVGNLETKVTEELLFELFHQAGPVIKVKIPKDKDGKPKQFAFVNFKHEVSVPYAMNLLNGIKLYGRPIKIQFRSGSSHAPQDVSLSYPQHHVGNSSPTSTSPSRYERTMDNMTSSAQIIQRSFSSPENFQRQAVMNSALRAMSYGGKFGSSPLDQSGFSPSVQSHSHSFNQSSSSQWRQGTPSSQRKVRMNSYPYLADRHYSREQRYTDHGSDHHYRGKRDDFFYEDRNHDDWSHDYDNRRDSSRDGKWRSSRH | 131 | – |
| RBM7 P138: RBM7, P138 to alanine (protein, UniProt Q9Y580 2-266, looked up, variant P138A) RNA-binding protein 7: GAAAAEADRTLFVGNLETKVTEELLFELFHQAGPVIKVKIPKDKDGKPKQFAFVNFKHEVSVPYAMNLLNGIKLYGRPIKIQFRSGSSHAPQDVSLSYPQHHVGNSSPTSTSPSRYERTMDNMTSSAQIIQRSFSSAENFQRQAVMNSALRQMSYGGKFGSSPLDQSGFSPSVQSHSHSFNQSSSSQWRQGTPSSQRKVRMNSYPYLADRHYSREQRYTDHGSDHHYRGKRDDFFYEDRNHDDWSHDYDNRRDSSRDGKWRSSRH | 92 | – |
| RBM7 V146: RBM7, V146 to alanine (protein, UniProt Q9Y580 2-266, looked up, variant V146A) RNA-binding protein 7: GAAAAEADRTLFVGNLETKVTEELLFELFHQAGPVIKVKIPKDKDGKPKQFAFVNFKHEVSVPYAMNLLNGIKLYGRPIKIQFRSGSSHAPQDVSLSYPQHHVGNSSPTSTSPSRYERTMDNMTSSAQIIQRSFSSPENFQRQAAMNSALRQMSYGGKFGSSPLDQSGFSPSVQSHSHSFNQSSSSQWRQGTPSSQRKVRMNSYPYLADRHYSREQRYTDHGSDHHYRGKRDDFFYEDRNHDDWSHDYDNRRDSSRDGKWRSSRH | 7 | – |
| RBM7 R143: RBM7, R143 to alanine (protein, UniProt Q9Y580 2-266, looked up, variant R143A) RNA-binding protein 7: GAAAAEADRTLFVGNLETKVTEELLFELFHQAGPVIKVKIPKDKDGKPKQFAFVNFKHEVSVPYAMNLLNGIKLYGRPIKIQFRSGSSHAPQDVSLSYPQHHVGNSSPTSTSPSRYERTMDNMTSSAQIIQRSFSSPENFQAQAVMNSALRQMSYGGKFGSSPLDQSGFSPSVQSHSHSFNQSSSSQWRQGTPSSQRKVRMNSYPYLADRHYSREQRYTDHGSDHHYRGKRDDFFYEDRNHDDWSHDYDNRRDSSRDGKWRSSRH | 5 | – |
| RBM7 E139: RBM7, E139 to alanine (protein, UniProt Q9Y580 2-266, looked up, variant E139A) RNA-binding protein 7: GAAAAEADRTLFVGNLETKVTEELLFELFHQAGPVIKVKIPKDKDGKPKQFAFVNFKHEVSVPYAMNLLNGIKLYGRPIKIQFRSGSSHAPQDVSLSYPQHHVGNSSPTSTSPSRYERTMDNMTSSAQIIQRSFSSPANFQRQAVMNSALRQMSYGGKFGSSPLDQSGFSPSVQSHSHSFNQSSSSQWRQGTPSSQRKVRMNSYPYLADRHYSREQRYTDHGSDHHYRGKRDDFFYEDRNHDDWSHDYDNRRDSSRDGKWRSSRH | 77 | – |
| RBM7 F141: RBM7, F141 to alanine (protein, UniProt Q9Y580 2-266, looked up, variant F141A) RNA-binding protein 7: GAAAAEADRTLFVGNLETKVTEELLFELFHQAGPVIKVKIPKDKDGKPKQFAFVNFKHEVSVPYAMNLLNGIKLYGRPIKIQFRSGSSHAPQDVSLSYPQHHVGNSSPTSTSPSRYERTMDNMTSSAQIIQRSFSSPENAQRQAVMNSALRQMSYGGKFGSSPLDQSGFSPSVQSHSHSFNQSSSSQWRQGTPSSQRKVRMNSYPYLADRHYSREQRYTDHGSDHHYRGKRDDFFYEDRNHDDWSHDYDNRRDSSRDGKWRSSRH | 4 | – |
| RBM7 N140: RBM7, N140 to alanine (protein, UniProt Q9Y580 2-266, looked up, variant N140A) RNA-binding protein 7: GAAAAEADRTLFVGNLETKVTEELLFELFHQAGPVIKVKIPKDKDGKPKQFAFVNFKHEVSVPYAMNLLNGIKLYGRPIKIQFRSGSSHAPQDVSLSYPQHHVGNSSPTSTSPSRYERTMDNMTSSAQIIQRSFSSPEAFQRQAVMNSALRQMSYGGKFGSSPLDQSGFSPSVQSHSHSFNQSSSSQWRQGTPSSQRKVRMNSYPYLADRHYSREQRYTDHGSDHHYRGKRDDFFYEDRNHDDWSHDYDNRRDSSRDGKWRSSRH | 5 | – |
| RBM7 Q142: RBM7, Q142 to alanine (protein, UniProt Q9Y580 2-266, looked up, variant Q142A) RNA-binding protein 7: GAAAAEADRTLFVGNLETKVTEELLFELFHQAGPVIKVKIPKDKDGKPKQFAFVNFKHEVSVPYAMNLLNGIKLYGRPIKIQFRSGSSHAPQDVSLSYPQHHVGNSSPTSTSPSRYERTMDNMTSSAQIIQRSFSSPENFARQAVMNSALRQMSYGGKFGSSPLDQSGFSPSVQSHSHSFNQSSSSQWRQGTPSSQRKVRMNSYPYLADRHYSREQRYTDHGSDHHYRGKRDDFFYEDRNHDDWSHDYDNRRDSSRDGKWRSSRH | 67 | – |
| CDCA4 K44: CDCA4, K44 to alanine (protein, UniProt Q9BXL8 1-241, looked up, variant K44A) Cell division …: MFARGLKRKCVGHEEDVEGALAGLKTVSSYSLQRQSLLDMSLVALQLCHMLVEPNLCRSVLIANTVRQIQEEMTQDGTWRTVAPQAAERAPLDRLVSTEILCRAAWGQEGAHPAPGLGDGHTQGPVSDLCPVTSAQAPRHLQSSAWEMDGPRENRGSFHKSLDQIFETLETKNPSCMEELFSDVDSPYYDLDTVLTGMMGGARPGPCEGLEGLAPATPGPSSSCKSDLGELDHVVEILVET | – | 22 |
| CDCA4 Q46: CDCA4, Q46 to alanine (protein, UniProt Q9BXL8 1-241, looked up, variant Q46A) Cell division …: MFARGLKRKCVGHEEDVEGALAGLKTVSSYSLQRQSLLDMSLVKLALCHMLVEPNLCRSVLIANTVRQIQEEMTQDGTWRTVAPQAAERAPLDRLVSTEILCRAAWGQEGAHPAPGLGDGHTQGPVSDLCPVTSAQAPRHLQSSAWEMDGPRENRGSFHKSLDQIFETLETKNPSCMEELFSDVDSPYYDLDTVLTGMMGGARPGPCEGLEGLAPATPGPSSSCKSDLGELDHVVEILVET | – | 61 |
| CDCA4 P54: CDCA4, P54 to alanine (protein, UniProt Q9BXL8 1-241, looked up, variant P54A) Cell division …: MFARGLKRKCVGHEEDVEGALAGLKTVSSYSLQRQSLLDMSLVKLQLCHMLVEANLCRSVLIANTVRQIQEEMTQDGTWRTVAPQAAERAPLDRLVSTEILCRAAWGQEGAHPAPGLGDGHTQGPVSDLCPVTSAQAPRHLQSSAWEMDGPRENRGSFHKSLDQIFETLETKNPSCMEELFSDVDSPYYDLDTVLTGMMGGARPGPCEGLEGLAPATPGPSSSCKSDLGELDHVVEILVET | – | 66 |
| CDCA4 C57: CDCA4, C57 to alanine (protein, UniProt Q9BXL8 1-241, looked up, variant C57A) Cell division …: MFARGLKRKCVGHEEDVEGALAGLKTVSSYSLQRQSLLDMSLVKLQLCHMLVEPNLARSVLIANTVRQIQEEMTQDGTWRTVAPQAAERAPLDRLVSTEILCRAAWGQEGAHPAPGLGDGHTQGPVSDLCPVTSAQAPRHLQSSAWEMDGPRENRGSFHKSLDQIFETLETKNPSCMEELFSDVDSPYYDLDTVLTGMMGGARPGPCEGLEGLAPATPGPSSSCKSDLGELDHVVEILVET | – | 91 |
| CDCA4 L56: CDCA4, L56 to alanine (protein, UniProt Q9BXL8 1-241, looked up, variant L56A) Cell division …: MFARGLKRKCVGHEEDVEGALAGLKTVSSYSLQRQSLLDMSLVKLQLCHMLVEPNACRSVLIANTVRQIQEEMTQDGTWRTVAPQAAERAPLDRLVSTEILCRAAWGQEGAHPAPGLGDGHTQGPVSDLCPVTSAQAPRHLQSSAWEMDGPRENRGSFHKSLDQIFETLETKNPSCMEELFSDVDSPYYDLDTVLTGMMGGARPGPCEGLEGLAPATPGPSSSCKSDLGELDHVVEILVET | – | 42 |
| CDCA4 V52: CDCA4, V52 to alanine (protein, UniProt Q9BXL8 1-241, looked up, variant V52A) Cell division …: MFARGLKRKCVGHEEDVEGALAGLKTVSSYSLQRQSLLDMSLVKLQLCHMLAEPNLCRSVLIANTVRQIQEEMTQDGTWRTVAPQAAERAPLDRLVSTEILCRAAWGQEGAHPAPGLGDGHTQGPVSDLCPVTSAQAPRHLQSSAWEMDGPRENRGSFHKSLDQIFETLETKNPSCMEELFSDVDSPYYDLDTVLTGMMGGARPGPCEGLEGLAPATPGPSSSCKSDLGELDHVVEILVET | – | 82 |
| CDCA4 N55: CDCA4, N55 to alanine (protein, UniProt Q9BXL8 1-241, looked up, variant N55A) Cell division …: MFARGLKRKCVGHEEDVEGALAGLKTVSSYSLQRQSLLDMSLVKLQLCHMLVEPALCRSVLIANTVRQIQEEMTQDGTWRTVAPQAAERAPLDRLVSTEILCRAAWGQEGAHPAPGLGDGHTQGPVSDLCPVTSAQAPRHLQSSAWEMDGPRENRGSFHKSLDQIFETLETKNPSCMEELFSDVDSPYYDLDTVLTGMMGGARPGPCEGLEGLAPATPGPSSSCKSDLGELDHVVEILVET | – | 99 |
| CDCA4 E53: CDCA4, E53 to alanine (protein, UniProt Q9BXL8 1-241, looked up, variant E53A) Cell division …: MFARGLKRKCVGHEEDVEGALAGLKTVSSYSLQRQSLLDMSLVKLQLCHMLVAPNLCRSVLIANTVRQIQEEMTQDGTWRTVAPQAAERAPLDRLVSTEILCRAAWGQEGAHPAPGLGDGHTQGPVSDLCPVTSAQAPRHLQSSAWEMDGPRENRGSFHKSLDQIFETLETKNPSCMEELFSDVDSPYYDLDTVLTGMMGGARPGPCEGLEGLAPATPGPSSSCKSDLGELDHVVEILVET | – | 153 |
| CDCA4 L45: CDCA4, L45 to alanine (protein, UniProt Q9BXL8 1-241, looked up, variant L45A) Cell division …: MFARGLKRKCVGHEEDVEGALAGLKTVSSYSLQRQSLLDMSLVKAQLCHMLVEPNLCRSVLIANTVRQIQEEMTQDGTWRTVAPQAAERAPLDRLVSTEILCRAAWGQEGAHPAPGLGDGHTQGPVSDLCPVTSAQAPRHLQSSAWEMDGPRENRGSFHKSLDQIFETLETKNPSCMEELFSDVDSPYYDLDTVLTGMMGGARPGPCEGLEGLAPATPGPSSSCKSDLGELDHVVEILVET | – | 86 |

Reference: article PMC11446282
